Entries after “also recorded” stand apart in the source; their conditions may differ.
B1: anti-Gal1 monoclonal antibody 8F4F8G7 (antibody, V domains shown)
VH: EVQLQQSVAEFVRPGASVRLSCTASGFNIKNTYIHWVRQRPEQGLEWIGKIDPANGNTKYVPEFQGKATMTADTSSNTVYLHLSSLTSEDTAIYYCVDGYYGWYFAVWGTGTTVTVSS
VL: QAVVTQESALTTSPGETVTLTCRSSTGAVTTSNYANWVQEKPDHLFTGLIGATNNRAPGVPARFSGSLIGDKAVLTITGAQTEDEAIYFCALWYRNHFIFGSGTKVTVL
notes: Murine hybridoma mAb (deposit PTA-10535), lambda light chain; also called 14-19 8F4-F8-G7; clone 8F4.8F.67

Experiments:
[1] = system: growth factor receptor tyrosine kinases (RTKs) and signaling nodes; assay: Phospho-RTK signaling array of HUVEC; format: cell-based, human; conditions: HUVEC exposed to Gal1
Protocol: Cells were lysed and analyzed by the human PathScan® RTK Signaling Antibody
Array (Cell Signaling) following manufacturer's directions. For co-immunoprecipitation, 500 μg cell lysates were incubated with 2 μg of anti-VEGFR2 (55B11; Cell Signaling) or anti-NRP-1 (C-19; Santa Cruz Biotechnol) antibodies. The immunocomplexes were captured with protein G PLUS-Agarose (Santa Cruz Biotechnol) and processed for immunoblot analysis as described in Ilarregui et al. (2009) Nat Immunol 10, 981-991. Equal amounts of protein were resolved by SDS-PAGE, blotted onto nitrocellulose membranes (GE Healthcare) and probed with anti-IκB-α (C21), anti-Erk1/2 (C14), anti-phospho-Erk1/2 (E4) or anti-actin (I-19) (all from Santa Cruz Biotechnol) or anti-Akt (9272), anti-phospho-Akt (9271S), anti-VEGFR2 (55B11), anti-phospho-VEGFR2 (19A10) (all from Cell Signaling) or anti-HIF-1α (mgc3; ABR BioReagent) antibodies or a rabbit anti-Gal1 IgG (1.5 μg/ml) obtained as described in Ilarregui et al. (2009) Nat Immunol 10, 981-991.

B16 tumors = assay: Anti-tumor immune response in B16 tumor-bearing mice (TDLN restimulation, FACS); format: in vivo, mouse
Protocol: Wild-type KS cells or shRNA clones (5×10^6 cells) were injected subcutaneously into 6- to 8-week old nude mice. Wild-type B16 cells or shRNA clones (2×10^5 cells) were injected into 6- to 8-week old B6 or B6/Rag^−/− mice and tumor development was monitored as described in Rubinstein et al. (2004) Cancer Cell 5, 241-251. Treatments with 8F4F8G7 mAb or control isotype (2.5, 7.5 or 15 mg/kg; i.p. injections every three days) were initiated when tumors reached 100 mm^3. Mice were sacrificed when tumors reached a volume greater than 2 cm^3. At 2 weeks after tumor challenge, lymph node cells (5×10^5 cells/well) were restimulated for 72 h with 1×10^4 irradiated (4,000 rads) B16 cells and were analyzed for proliferation and cytokine production. For adoptive transfer, splenic T cells (5×10^6) from tumor-bearing mice were labeled with CFSE (Molecular Probes) and injected through the tail vein into tumor-bearing recipient mice treated with 8F4F8G7 or control mAb. In related studies, fluorescent beads (3 μm; BD Biosciences), rather than splenic T cells, were injected into tumor-bearing animals treated with 8F4F8G7 or control antibody. CFSE^+ cells or PerCP-labeled beads were analyzed after 24 h or 15 min respectively by flow cytometry in tumor parenchyma and spleen.
For intracellular cytokine staining, TLDN or tumor-infiltrating lymphocytes were made permeable with Perm2 solution (BD Biosciences) and were labeled with fluorescent-labeled monoclonal anti-IFN-γ (XMG1.2; BD Biosciences), anti-IL-17 (TC11-18H10; BD Biosciences), anti-IL-10 (JESS-16E3; eBioscience), anti-CD4 (GK1.5; BD Biosciences), anti-CD8 (H35-17.2; eBioscience) antibodies. Treg cells were determined by using the mouse Treg staining kit (FJK-16s, eBioscience). Cells were analyzed on a FACSAria (BD Biosciences) using a FlowJO software.
Mouse IFN-γ and IL-10 ELISA sets were from BD Biosciences and mouse IL-17 kit was from R&D. Human soluble VEGF was assessed by ELISA (DY293B; R&D). Soluble Gal1 was determined using an in-house ELISA. Briefly, high binding 96-well microplates (Corning Costar) were coated with capture antibody (2 μg/ml purified rabbit anti-Gal1 polyclonal IgG) in 0.1 M sodium carbonate pH 9.5. After incubation for 18 hours at 4° C., wells were rinsed three times with wash buffer (0.05% Tween-20 in PBS) and incubated for 1 h at RT with blocking solution (2% BSA in PBS). Samples and standards (100 μl) were diluted in 1% BSA and incubated for 18 hours at 4° C. Plates were then washed and incubated with 100 ng/ml biotinylated detection antibody (purified rabbit anti-Gal1 polyclonal IgG) for 1 hour at RT. Plates were rinsed three times before adding horseradish peroxidase-labeled streptavidin (0.33 μg/ml; Sigma) for 30 min at RT. After washing, 100 μl of TMB solution (0.1 mg/ml tetramethylbenzidine and 0.06% H2O2 in citrate-phosphate buffer pH 5) was added to the plates. The reaction was stopped by adding 4N H2SO4. Optical densities were determined at 450 nm in a Multiskan MS microplate reader (Thermo Electron Corporation). A standard curve ranging from 2.5 to 160 ng/ml recombinant Gal1 was run in parallel.

rGal1 = rGal1 (Homo sapiens, UniProt P09382); assay: Anti-Gal1 mAb neutralization of rGal1-induced killing of EBV-specific CTLs; format: cell-based; conditions: rGal1 1.25, 2.5 or 5 μM pre-incubated with mAb; 4 h; 7AAD
Sequence of rGal1 (P09382 whole entry): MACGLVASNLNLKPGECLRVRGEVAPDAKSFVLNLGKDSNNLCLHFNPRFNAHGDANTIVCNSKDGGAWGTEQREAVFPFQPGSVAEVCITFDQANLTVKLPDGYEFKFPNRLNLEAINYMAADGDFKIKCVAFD
Protocol: After informed consent, 40-60 ml of peripheral blood from healthy donors was used to generate both EBV-transformed LCLs and EBV-specific CTLs (Straathof et al. (2005) Blood 105:1898-904). In brief, 5×10^6 peripheral blood mononuclear cells (PBMCs) were incubated with concentrated culture supernatant from the marmoset B-lymphoblastoid cell line, B95-8, in the presence of 1 μg/ml cyclosporin A (Sandoz, Vienna, Austria) to establish a LCL. Subsequently, PBMCs (2×10^6 per well of a 24-well plate) were stimulated with irradiated LCLs (at 4,000 rads) at an effector-stimulator (E/S) ratio of 40:1. After 10 days, viable cells were restimulated with irradiated LCLs (at 4:1 E/S ratio). CTLs were expanded by weekly stimulations with autologous irradiated LCLs (at 4:1 E/S ratio) in the presence of recombinant human interleukin-2 (rhIL-2, Proleukin; Chiron Emeryville, Calif.) at concentration of 40 U/ml. After 5 cycles of stimulation, CTLs were tested for EBV specificity and cryopreserved. […]
CTLs were thawed in AIM-V media (Invitrogen) containing 10 U/ml of DNAse I (Roche Applied Science, Indianapolis, Ind.) and rested in culture overnight. […] After 4 hours, the viability of EBV-specific CD8^+ T cells was measured using 7AAD and APC-Cy7-labelled CD8 (BD Biosciences, San Jose, Calif.).

[2] = restimulated ex vivo with B16 cells

Molecule	phosphorylation of Akt (Thr308), Akt (Ser473) and Erk1/2 [1]	phosphorylation of VEGFR2 ([1]; as early as 15 min)	B16-specific IL-10 production (B16 tumors; mouse, in vivo)	proliferation of tumor-draining lymph node cells (B16 tumors; [2])	synthesis and secretion of IFN-γ by tumor-draining lymph node cells (B16 tumors; [2])	synthesis and secretion of IL-17 by tumor-draining lymph node cells (B16 tumors; [2])	frequency of CD4+CD25+FoxP3+ Treg cells in TDLN (B16 tumors; vs isotype control)	number of tumor-infiltrating IFN-γ-producing CD8+ T cells (B16 tumors; vs isotype-treated mice)	rGal1-mediated apoptosis of EBV-specific CD8+ T cells (rGal1)
rGal1: recombinant human galectin-1	increased	became phosphorylated							
B1			blunted	stimulated	stimulated	stimulated	decline	dramatic increase	almost completely abrogated; also recorded: dramatically reduced

From US10456465B2, “Compositions, kits, and methods for the diagnosis prognosis, monitoring, treatment and modulation of post-transplant lymphoproliferative disorders and hypoxia associated angiogenesis disorders using galectin-1” (Dana-Farber Cancer Institute, Inc., priority 2009, dated 2019)
